Here are results for six molecules from patent publication US6426335, “Vascular endothelial growth factor (VEGF) nucleic acid ligand complexes” (Gilead Sciences, Inc.).

Series [1] concerns the target T1, VEGF165 (Homo sapiens, UniProt P15692-4 P15692-4:27-191). Kind of series: EMSA; competition EMSA; apparent affinity; VEGF isoform not stated. Particulars: tags: R&D Systems carrier-free, expressed in Sf21 insect cells; chain copies: homodimer (inferred). The procedure: The binding affinities of the unmodified Nucleic Acid Ligand (NX213, open circle), its dialkyl glycerol modified analog (NX278, open diamond) and liposomal NX278 (NX278-L, open square), along with the sequence scrambled (sc) controls (scNX213, closed circle; scNX278, closed diamond; and scNX278-L, closed square) were determined by a competition electrophoreticmobility shift assay. NX213 is 5'-TsTsTsTs mAaCaC aCaUrG rAaUmG rGaUmA mGrAaC mGaCaC mGmGmG mGaUmG TsTsTsTsT-3' and scNX213 is (SEQ ID NO:1) 5'-TsTsTsTs mGaUaC mGmGaU mAaCrG mGrAmG aUmGrG rAaCnC mGaUaC mAaCmG TsTsTsTsT-3' (SEQ ID NO:4) ^32P 5=end-labeled NX-213 (1.5 nM) was incubated in binding buffer (phosphate buffered saline with 0.01% human serum albumin) at 37° C. for 20 min in the presence of VEGF (0.33 nM) and competitor oligonucleotide(5 pM-0.33 µM). The ^32p NX-213/VEGF complex was resolved from the free ^32p NX-213 by electrophoresison 8% polyacrylamide gel (19:1 acrylamide:bisacrylamide, Tris-borate, 89 mM, 1 mM EDTA as the running buffer). The intensity of the band corresponding to ^32P NX-213/VEGF complex at varying competitor concentrations was quantitated by phosphorimager analysis. Data normalized for the amount of complex formed in the absence of competitor were fitted by the least squares method to the competition binding equation. […]
On the technique in general: A gel shift assay detects complexes by their altered migration in electrophoresis.

The target in series [2] is T1, VEGF165. The series is described as follows: described previously, quoted for comparison. The note with it: tags: R&D Systems carrier-free, expressed in Sf21 insect cells; chain copies: homodimer (inferred); label: 32P 5' end.
Series [3] deals with T1, VEGF165. Kind of series: filter; 37C. The note with it: tags: R&D Systems carrier-free, expressed in Sf21 insect cells; chain copies: homodimer (inferred). As to the method:
(§1) Nucleic Acid Ligands radiolabeled during transcription by incorporation of α-[^32P]-labeled NTPs, or after synthesis using γ-[^32P]-ATP and T4 polynucleotide kinase, were incubated in low concentration (between 20 and 71 pM) with varying concentrations of VEGF or other growth factors at 37° C. for 15 minutes. Incubations were in TBS, PBS, or HEPES-buffered saline (HBS), pH 7.4, with or without the addition of supplemental divalent cations. Samples were passed through prewashed 0.45μ Type HA filters (Millipore) followed by a 5–10 ml wash with binding buffer. Filters were immersed in scintillant and counted to quantitate the amount of protein-bound RNA retained by each filter. The equilibrium dissociation constant (K_D) of Nucleic Acid Ligand binding to a specific protein was calculated from the data points as described in Green et al. (1996) Biochem. 35:14413–14424.

Series [4] addresses T1, VEGF165. Kind of series: filter; 37C; Ca2+ dependent. Particulars: tags: R&D Systems carrier-free, expressed in Sf21 insect cells; chain copies: homodimer (inferred). As to the method:
as §1

T1 sequence (P15692 other isoform, or with tags, fused parts or gaps): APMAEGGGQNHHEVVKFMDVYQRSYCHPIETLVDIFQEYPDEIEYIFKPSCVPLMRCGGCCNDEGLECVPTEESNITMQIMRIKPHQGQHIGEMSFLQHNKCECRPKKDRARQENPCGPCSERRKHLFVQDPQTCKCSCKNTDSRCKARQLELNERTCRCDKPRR

With TTTTACCCUGAUGGUAGACGCCGGGGUGTTTTT (mixed, as NX278, embedded in DSPC:cholesterol liposome) [NX278-Liposome], the binding signal with VEGF165 [1] was 3 fold lower than NX278.

B1: NX213 (mixed)
mixed: TTTTACCCUGAUGGUAGACGCCGGGGUGTTTTT
modifications: PS DNA T at 1-4 and 29-33; 2'-OMe at 5,13,16,17,20,23-26,28; 2'-NH2 at 6-9,12,15,19,21,22,27
B1 yielded a Kd with VEGF165 [2] of 140 pM.

As to GAAUCAGUGAAUGCUUAUACAUCT (ssRNA, 2'-F pyrimidines; 3'-3' dT cap (N24) [24 (3'-3' dT cap); all C/U 2'-F]) [t44c], the Kd with VEGF165 [3] was 2000 pM.

In the series with VEGF165 [3], AACCGAUGGAAUUUUUGGACGCUT (ssRNA, 2'-F pyrimidines; 3'-3' dT cap (N24) [24 (3'-3' dT cap); all C/U 2'-F]) [t2d] showed a Kd of 20000 pM. Against the preceding molecule, the Kd is about 10-fold higher.

Consider GCGGAAUCAGUGAAUGCUUAUACAUCCGCT (ssRNA, 2'-F pyrimidines; 3'-3' dT cap (N30) [30 (3'-3' dT cap); all C/U 2'-F]) [t44], for which the Kd with VEGF165 [4] was determined as 10 pM.

In the series with VEGF165 [3], GAACCGAUGGAAUUUUUGGACGCUCT (ssRNA, 2'-F pyrimidines; 3'-3' dT cap (N26) [26 (3'-3' dT cap); all C/U 2'-F]) [t2c] had a Kd of 200 pM.

What is called Kd is the equilibrium constant for the complex coming apart.
